{
  "source": "paper PMC2115704",
  "about": "(The Journal of Cell Biology, 1989)",
  "biological_target": "the molecule itself",
  "assay": "SDS-PAGE in the absence of reductant",
  "data": [
    {"protein": "platelet thrombospondin (natural protein, iodinated (residues not stated)) not shown", "values": [
      {"measurement": "stoichiometry N", "result": 3}
    ]}
  ]
}
